Stoichiometry N data for one substance are collected here from PMC5035961.

In test [1] the target is Influenza A nucleoprotein (strain A/WSN/1933, H1N1) (influenza A virus, H1N1 strain A/WSN/1933) (UniProt P15682). Put plainly: SEC-MALLS.
The target is the same in test [2]. Nature of the test: negative stain electron microscopy.

“Influenza A nucleoprotein (strain A/WSN/1933, H1N1) (from UniProt P15682 1-498) (natural protein)”: the stoichiometry N in test [1] and in test [2] was 3 throughout.
